We go through two molecules from paper PMC8991199, “Promiscuity mapping of the S100 protein family using a high-throughput holdup assay” (Scientific Reports, 2022).

Common to all, as to assay: fluorescence polarisation; direct FP: S100 protein diluted in 50 nM labeled foldamer, 20 mM HEPES pH 7.5, 150 mM NaCl, 1 mM CaCl2, 0.5 mM TCEP, 0.01% Tween20; quadratic fit (ProFit); detection threshold Kd 1 mM
For test [1], the target named is fIF, fluorescently labelled H14 foldamer IF.
Test [2] addresses fIL, fluorescently labelled H14 foldamer IL.
Test [3] addresses fRF, fluorescently labelled H14 foldamer RF.
In test [4] the target is fRR, fluorescently labelled H14 foldamer RR.
In test [5] the target is fTI, fluorescently labelled H14 foldamer TI.
Test [6] concerns the target fTM, fluorescently labelled H14 foldamer TM.
For test [7], the target named is fTW, fluorescently labelled H14 foldamer TW.
Test [8] deals with fVL, fluorescently labelled H14 foldamer VL.
The target in test [9] is fWL, fluorescently labelled H14 foldamer WL.
In test [10] the target is fWW, fluorescently labelled H14 foldamer WW.
The target of test [11] is fYF, fluorescently labelled H14 foldamer YF.

Some results are limits rather than exact numbers.

B1: S100A9 (natural protein)
chain: MTCKMSQLERNIETIINTFHQYSVKLGHPDTLNQGEFKELVRKDLQNFLKKENKNEKVIEHIMEDLDTNADKQLSFEEFIMLMARLTWASHEKMHEGDEGPGHHHKPGLGEGTP
Take B1: the Kd – broadly, the equilibrium constant for the complex coming apart – in test [1] is greater than 1000 µM; in [2] it was greater than 1 mM; in test [3], greater than 1 mM; in test [4], greater than 1 mM; in test [5] it was greater than 1 mM; in test [6], greater than 1 mM. Moreover, the Kd is greater than 1000 µM in test [7]; greater than 1 mM in test [8]; greater than 1000 µM in test [9]; greater than 1 mM in [10]; greater than 1000 µM in [11].

B2: S100A8 (natural protein)
chain: MLTELEKALNSIIDVYHKYSLIKGNFHAVYRDDLKKLLETECPQYIRKKGADVWFKELDINTDGAVNFQEFLILVIKMGVAAHKKSHEESHKE
On to B2, for which the Kd in test [1] is 750 µM; in test [2], greater than 1 mM; in test [3], greater than 1 mM; in test [4], greater than 1 mM; in test [5], greater than 1 mM; in test [6] it was greater than 1 mM. The Kd was 770 µM in test [7]; greater than 1 mM in test [8]; 74 µM in [9]; greater than 1 mM in test [10]; 180 µM in [11].
